# Measurements: publication PMC11750923, “High-affinity ssDNA aptamer and chemiluminescent aptasensor for TIMP-1 detection in human serum”
# B1: Apt-4 (ssDNA)
# DNA: CACGCATAGCGCCCCAACCCCAGTCGATGAAATTGCGTCGCGGGTGCCTATGCGTG
# Target: TIMP-1 (tissue inhibitor of metalloproteinases 1) (human, UniProt P01033 24-207)
# Assay: BLI; DPBS + 0.025% Tween 20; kon 1.30e6 M-1 s-1, koff 5.36e-4 s-1; 1:1 with mass transport; DPBS (138 mM NaCl, 2.67 mM KCl, 8.1 mM Na2HPO4, 1.47 mM KH2PO4, 1 mM CaCl2, 0.5 mM MgCl2); BLI with 0.025% Tween 20; pH and temperature not stated
# Details: protein: commercial; tags: His; label: biotin (BLI); hairpin
# Sequence of TIMP-1 (tissue inhibitor of metalloproteinases 1) (P01033 24-207): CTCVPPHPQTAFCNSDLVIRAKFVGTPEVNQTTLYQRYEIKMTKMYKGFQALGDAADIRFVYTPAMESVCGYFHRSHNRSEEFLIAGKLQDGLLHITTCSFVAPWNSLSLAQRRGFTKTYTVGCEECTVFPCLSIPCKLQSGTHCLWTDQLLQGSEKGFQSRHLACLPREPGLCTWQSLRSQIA
binder,measurement,value
B1,Kd,0.41 nM
